Experimental findings from PMC6356355 are described below.

The assay addresses Toll-like receptor 9 (rat (endogenous in AR4-2J)).

Take “Recombinant histone H4 (from UniProt P62805 1-103) (natural protein)”: the blockade of H4 (5 mgL^-1)-induced calcium oscillations in AR4-2J cells by simultaneous perfusion of TLR9 antagonist ODN2088 (5 uM) turned out to be 88%.
